Results: US20170157165

Molecular target: FGF2 (Homo sapiens) (UniProt P09038)
Assay: cell_activity
Details: 5' C6; 3' idT; negative control; HUVEC proliferation, FGF2 0.58 nM

FGF2 (Homo sapiens), sequence (P09038 135-288): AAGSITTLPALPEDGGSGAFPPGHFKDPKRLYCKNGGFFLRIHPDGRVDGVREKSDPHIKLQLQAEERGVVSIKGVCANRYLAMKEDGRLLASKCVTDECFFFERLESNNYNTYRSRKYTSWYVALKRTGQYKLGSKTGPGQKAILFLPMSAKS

Substance: negative control RNA (Macugen sequence without PEG)
- IC50: > 400 nM
